This series is described as follows: soluble on expression in E. coli; label from the status in PepcDB or PDB records.
Take “MMYIYTYTDPFGKRRYTYSKDLVKLREKEQKLLKDQLDGLDVYAAGNANLNFVFDRYISTKTELRRTTYTNYMYMYDHYVRDSFGKKKIGEIKYSDVLYFYYHLINERKLQVNTLETIHTVLHPTFQLAVRDDIIRNNPSHGVMSEIKKKPGRNHGVRHALTVEQQRAFMNYTSNSPVFNHWAPLFTVLLGTGCRIGEIIGIRWEDIDLEKRLININHSVTYYPRRAETTKCEFAVSLPKTEAGIRTVPMMEPVYNAFMEEYEYQKENGFSTVTLDGMEGFIFTNRFGNLHNPQAVNRTIKRI”: the “soluble on expression in E. coli” value is listed as “not soluble”.

Take “MSAVSNGNPSIVSPRGEHKGTLIFLHGLGDQGHGWADAFKTEAKHDNIKFICPHSSERPVTLNMGMRMPAWFDLFGLDPNAQEDEQGINRATQYVHQLIDAEVAAGIPASRIAVGGFSMGGALAIYAGLTYPQKLGGIVGLSSFFLQRTKFPGSFTANNATPIFLGHGTDDFLVPLQFGQMSEQYIKKFNPKVELHTYRGMQHSSCGEEMRDVKTFLSAHIAH”: the “soluble on expression in E. coli” value was “not soluble”.

As for “MSLNYRHAFHAGNFADLHKHAILLAMLSALQEKSPALAVIDTHAGAGGYDLAGEMARRSGEAQAGIFRLKAAADAPAVFQPLLNAITQMNGGKDGDLYPGSPRLMARALRGADRYVGCELRDDDADLLRKTLAPCANARALQADGFDTAVKDAGKGGRAFIVIDPPFERPDDYDRIVATTRAVLARAPDAALAIWLPIKDLETFDAFLRAMETVTSDLLVAELRLRPLTDPMKMNGCAMVMIGAPPSVEDAAVAAGDWIATRLGEPGGRSRVWRTEGHHHHHH”, the “soluble on expression in E. coli” value is given as “soluble”.

With “MKVPHVIAELVSEFSGFQHTPDFKASRSTGNFEEGSEEGTSGSHKPEEHHHKEHHGHSLYFGKHSGKKHLPPVVENDGDTHSNHSDVSGSGSSLKEKKHHGLTAHFKDLFHIGHHHHHHGEHPHSKQNSGASTPARKNSTGSECPCSKQEQCHKHSINITVGADEVPTVLATPPNEQNILHAHFIKNQSPCISRVVSSSSLKEKLHKIKRTTSSDSDTDFPEKKCSVASYRVVTH”, the “soluble on expression in E. coli” value was “not soluble”.

Regarding “MEPRTIACPHKGCTKMFRDNSAMRKHLHTHGPRVHVCAECGKAFVESSKLKRHQLVHTGEKPFQCTFEGCGKRFSLDFNLRTHVRIHTGDRPYVCPFDGCNKKFAQSTNLKSHILTHAKAKNNQ”, the “soluble on expression in E. coli” value is “soluble”.

Regarding “MAHHHHHHMDKLISNNKLKLSVVLLGGLCSLAYYHLKNKFHLSQFCFSKKWFSEFSIMWPGQAFSLKIKKILYETKSKYQNVLVFESTTYGKVLVLDGVIQLTEKDEFAYHEMMTHVPMTVSKEPKNVLVVGGGDGGIIRELCKYKSVENIDICEIDETVIEVSKIYFKNISCGYEDKRVNVFIEDASKFLENVTNTYDVIIVDSSDPIGPAETLFNQNFYEKIYNALKPNGYCVAQCESLWIHVGTIKNMIGYAKKLFKKVEYANISIPTYPCGCIGILCCSKTDTGLTKPNKKLESKEFADLKYYNYENHSAAFKLPAFLLKEIENI”, the “soluble on expression in E. coli” value is “soluble”.

Regarding “SISTHESQKLREYYRLLNLDEGCSVDDVRESFHKLARQYHPDSGSSDADSATFIKIEEAYRNVLSHAIKRMHAGQDKAEDAAEDEEEGKFKYNTPQHRHYLSFEGVGFGTPSQREKQYRQFRADRATEQVMEYQRQKLQREFFANSITVKDVRQSKQQKITQAIERLVEDLIQESMAKGDFDNLSGKGKPLKKFSGCSYIDPMTHNLNRILIDNGYQPEWILMQKEIKDTIEQLREALLMSRKKLGNPLSPTEQKQWAQVCEQFQEKIRKLNKRINDFNLIVPILTRQKVHFDAQKEIIRVQEMYGAFVEANEVTEENQTDVSQGEESKTPRVKAGFLNWLNLWKSIKI”, the “soluble on expression in E. coli” value is reported as “soluble”.

Regarding “MGSDKIHHHHHHMTEKKIILADEPLKSPDQDKLGFAPFAKRIATVIQSVQLRESIVFAVYGKWGSGKTTFINFLTSYLNHDSSITIVKFDPWWFSEKEDLIRQFLSNLQFTLNKSTKFKDIAKMLKPYIETLGEIPKFGWIFKIASRFKKNLQKSVIETKEEIINRLKEKDGKIVVIIDDIDRLTAKEIRELFTIVKAIADFPNTVYILAFDKDIVIRALEKVQEGKGEDYLEKIIQIPIELPLADKTSIRKMLFEELDAVLSGTSNELFDSTYWRNVYWDGIDPFINTVRNVKRLINTIRVTYPSVKNEVNAVDFIAIETLRVFCPEVYSIVKDYPDMFCGYSGEIYDVSRRHIEFLKQFHQNWLSRLNFPDDLKENIKNLLKRLFPKFESVFENIYYGPDWEREWRKKYRICCKEIFPRFFIFSVPSDDLSKHEMDFILSSLHNKEALIEHLKRLATQIRSDGSTRLSIFLERMEDYASEISQDYIPVVIEVFFTIGDKLIIPEDENKSFLIPWGNDIRMERIIWRLLRRYDNNSKRFEVLKNAFKNGQALFMMVNVLILFWQQHRKYRDAKESDAILLDENHLKTLQEIVLDKIRKAVEEGSLLNTPSLPVILHQWREWANEDEVKEWVKEIVFSDEKLPIFLTKFLQKTVSWTETSRATNIYWQIDLNWLKDFINLDFLEKRCNEILSNDSIIGTLEDKQKLAIRLFLNEKTKSLDSSTEEQGKDG”, the “soluble on expression in E. coli” value is reported as “not soluble”.

In the case of “GTLDTTWKEATLPQVKAMLEKDTGKVSGDTVTYSGKTVHVVAAAVLPGFPFPSFEVHDKKNPTLEIPAGATVDVTFINTNKGFGHSFDITKKGPPYAVMPVIDPIVAGTGFSPVPKDGKFGYTNFTWHPTAGTYYYVCQIPGHAATGQFGKIVVK”, the “soluble on expression in E. coli” value is “soluble”.

For the sequence “MDYKDDDDKLVDSLRACVFDAYGTLLDVHSAVMRNADEVGASAEALSMLWRQRQLEYSWTRTLMHQYADFWQLTDEALTFALRTYHLEDRKGLKDRLMSAYKELSAYPDAAETLEKLKSAGYIVAILSNGNDEMLQAALKASKLDRVLDSCLSADDLKIYKPDPRIYQFACDRLGVNPNEVCFVSSNAWDLGGAGKFGFNTVRINRQGNPPEYEFAPLKHQVNSLSELWPLLAKNVTKAA”, the “soluble on expression in E. coli” value was “soluble”.

Take “MSELSGKGCEIIVPFEERLPVRDIEKSIIKKYRKNLWSKFMKAIRDYKLVEEGDKIAVAISGGKDSILMAKMFQELKKHGQVNFDVEFIAMDPGYHANIRQLLIDNCEYLNIPIHLFDSRIFEIADEIAKDYPCYMCARMRRGALYSKAEELGCNKLALGHHYDDVIETTMLNLLCAGNFKTMLPKLNSTNFEGIKIIRPLYYIREEHIIRFIQNSGIWPLNCAC”: the “soluble on expression in E. coli” value was “not soluble”.

On to “MGSDKIHHHHHHMISVGKGKIMITPDHNIIKPIAIVLPQFHPIRENNLWWGEGFTEWTNVVKGRPRFRGHYQPHLPKDLGYYDLRLPETRKAQAALATKYGIYGFCYYHYWFNGRRILESPVDAMLESGEPDFPFMLCWANENWTRNWDGSYNKVLLEQKYSKEDFVNHARHLIRYFKDDRYIKIDGRPVFAIYKDDIGEDIEKYLLLFRNELLKNSINVFLCRFERNIGTSRDLNRAFQVFDAGIEFQPLARQFSYLINYNNRLSRRIYKTLKKHFCFCKNIDDVYVYSHLVDNDLKYDFQQGWPIFPGVCPGWDNSARRRDTTAIIFDKSTPEIFKLWVREKIRITDWNLLPERFLFVNAWNEWAEGNHLEPCEKWGTQYLAALQAGINEM”, for which the “soluble on expression in E. coli” value is given as “not soluble”.

In the case of “MIKNILILSSNNTGHGHKSITESLLEQFSHYPDVNVHVIDGFTLAGNFGLRIGKLYGSVTRNAKELWKLVWELSLKKPSLLNDFTEVAIKDNFLKLICNIKPDLILSVHPNFNGSVLNILEDYNIKVPFVTLLADIVSITPLWADPRADYIICPSKESKFKCLEFGVSESKLIETGFPVRQKFLKHLEKNGENNTQNIKKYTGDRPLECLIMSGGEGSGNMSRIASILLKNFNCRVKIVTGRNRLLKRRLERTIGERFGDRVEIYGFTENIQDLMLSSDIAFTRGSPNVMMEAVACNVPLIITGNLPGQEEGNPAYMQKYNLGVVCKDVRKLRHTVNELLENNGEKLNRIKQSQKEFLNPNVAKEIVSFLLSIDKQEEPCFPEDLFSGDFPRFWELHKRISMSHNKKIILKRHKKIGTKQK”, the “soluble on expression in E. coli” value is on record as “soluble”.

For “MSLDFATEYVYPAFSELTGTDKIVAFGDHSHKCPIYVPQTPPCTAECPAGEDIRAINRFLNGTDPSDDPLKSAWETATDTNPFPAVMGRICPHPCQSKCNRGVHDESVAINAVEQVLGNYGIEHNLKLKGPGADTGKRVAIIGGGPAGLSAAYQLRRKGHAVTIYDANEKLGGMVLYGIMGYRVDRKVLEAEIGRIIELGVETKMGVTIGKDITLEQLEAEYDAVFIAVGAQKGRALPVPGFEGTPGATNAIDFLKSYEVLGDDIPVGKHVVVIGDGNVSMDVARLALRLGSQATIISGVPREEMACFENEFDDAKNEGTTMHFLTGTVEVLGGASGVTGLRCTKMVKKEKGEEGWNSPIPFLRYKSNGESFEIEADMVVAAIGQATDLSGLGSAASGPWLKVDRNFRIPGREKLFGGGDALKVDLITTAVGHGRKAAYAIDAFLKGEPMPEEPYREITKPHKQDLLYFLHTPQAKRTSIKPEVVVGNHDELLEALTPEQAVTESKRCMSCGFCFDCKQCVSFCPQEAITRFRDNPAGEKVYTNYAKCVGCHLCSLVCPCGYIQMGMGDGEGHHHHHH”, the “soluble on expression in E. coli” value is “not soluble”.

In the case of “MDDYVPIPFTLLKLPQKSIDVVLRRMCIEALVELSFTSKAAMQQTKHLGIKTERFIIAINSNEILIDVSGCRDFRFYTFECSTPSHHTVQKPIRVHVGFRGERWETPFFGVRQFLNHLMEIFHQTKLDSLHISTADPECSNELKGMEFGWLSMMSMTSDNNSSQDEDALRQFSGKTDSICLNRNPFSIEPSKQMQMILTRNMNVVSTKCDLNDVFVTNARSFTAFLKIEDVNIFLKHWMHRSDRKLKSAWFDLDAFRWDVEDVLEPLFKGIAYHVAPADREFIVHLPKKLSGCGDYRVIGGYDVRRNDGMTATIIVADRANVFLKMFFWI”, the “soluble on expression in E. coli” value is “not soluble”.

With “MSLAAVILDYNGVIGLQPTTDQWLRLARTALWPEDDLPAFQNAFWTARTAYDAGHLSDLAYWATVLGHHPGARRLRGLRDADTDMWTSIDDHVIDVLHQAHESGLPLVLLSNAPRHLSDVLDRRPWRRLMTHAFYSARLQVCKPDPAAYQHAMNATGAADPDRVLFVDDRADNCHAARHLGLRTLHYTGHPTDLAAALQPPNEGHHHHHH”, the “soluble on expression in E. coli” value is recorded as “soluble”.

For “DPAVTYYRLEEVAKRNTAEETWMVIHGRVYDITRFLSEHPGGEEILLEQAGADATESFEDIGHSPDAREMLKQYYIGDVHPNDLKP”, the “soluble on expression in E. coli” value is reported as “soluble”.

In the case of “AHHHHHHASAKWVCKICGYIYDEDAGDPDNGISPGTKFEELPDDWVCPICGAPKSEFEKLEDGSGTREIIIDCYLHDMCEGLNIMTVRGSAYLLVGQNVYPLIEGIVPPTLHFYIKEGYLDIYGFWRVEGEEHAAHIRVAIDKVHVVGTSIIVEPHGALENFDASVVIKLDASEKDLEQLKKIINEEKFWTKEEHGEVISTYLEKHLREKRKKKE”, the “soluble on expression in E. coli” value is reported as “soluble”.

On to “MGSDKIHHHHHHMDSLGEQPSNRAPVITISSGRYLAQIATYGGGIKSLTYDGRPLVETYPDDAFPPLNAGVVLAPWPNRTDAGAYDFQGQSYQLPITEPDRNNAIHGFVANAVWNIDLIRPARVILSTTIEPQQGWPWAIELAADYLLTDSGLRAQFTATTPHEAVPFGFGWHTYLSAQGAEVDKTTLRVGVDKQWMLDDRNLPTGELVQPTNDVSGGLPMAGKLLDDCFLAERTPVTTVLESQGVGVSMHCSEQFPWFQIFTPDPAWEMPYPGRGRSVAVEPMTTSPNGLNLGIDTIGAASPWHGTITISAYNKHS”, for which the “soluble on expression in E. coli” value is listed as “not soluble”.

In the case of “MGKFSNQKKNRVKNKVAVTVKKAQRMKADAKNAKKDGEVDVEMKEEVVRVRGLAVSSLKKLASGELQNVPKVNEKKIIRKTELPVRENKKILDAPTGKRGTTAQYITKKKAKKMYKKMTHDARDKYRKIQAELAGDGEDDEEGEAEVMEQ”, the “soluble on expression in E. coli” value was “not soluble”.

Values taken from the DeepSol protein solubility set.
